One experiment deals with T1, FtsZ–mCherry (S. coelicolor, UniProt P45500 1-399).
T1 construct: FtsZ, cell division scaffold protein of Streptomyces coelicolor; The FtsZ–mCherry construct is not described in the main text; source: S. coelicolor M145, expressed in living aerial hyphae
T1 sequence (looked up): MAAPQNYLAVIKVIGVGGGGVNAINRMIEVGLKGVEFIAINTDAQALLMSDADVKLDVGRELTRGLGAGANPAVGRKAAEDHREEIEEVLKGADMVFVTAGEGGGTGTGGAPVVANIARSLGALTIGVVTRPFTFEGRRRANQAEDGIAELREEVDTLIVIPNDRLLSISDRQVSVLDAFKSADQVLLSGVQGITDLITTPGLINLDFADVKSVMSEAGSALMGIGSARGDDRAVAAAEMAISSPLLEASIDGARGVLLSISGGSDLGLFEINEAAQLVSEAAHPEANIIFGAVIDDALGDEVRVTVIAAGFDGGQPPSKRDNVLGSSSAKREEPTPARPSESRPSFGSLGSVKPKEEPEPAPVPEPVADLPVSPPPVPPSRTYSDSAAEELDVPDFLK
Kind of experiment: FRET or BRET; acceptor photobleaching in living S. coelicolor M145 hyphae; donor eGFP, acceptor mCherry; post-bleach donor intensity relative to the pre-bleach intensity (set to 1). The conditions noted are these: partners not purified. (In general: In BRET a luciferase serves as donor, and the signal depends on an acceptor being close.)

A further experiment concerns the target T2, SepG–mCherry (S. coelicolor, UniProt Q9S2X3 1-94).
T2 construct: SepG (YlmG), SCO2078, 94 aa membrane protein of Streptomyces coelicolor; called full-length sepG in the methods; egfp of pGWS755 replaced by the gene for mCherry; also called YlmG; SCO2078; source: S. coelicolor M145, expressed from the ftsZ promoter region (pGWS791), in living aerial hyphae; not shown: mCherry, C-terminal, kept
T2 sequence (looked up): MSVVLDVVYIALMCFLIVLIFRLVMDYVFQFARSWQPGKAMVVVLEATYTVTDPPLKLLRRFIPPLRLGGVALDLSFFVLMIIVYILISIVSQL
Described as above. The note with it: partners not purified.

B1: SsgB–eGFP (natural protein, S. coelicolor, UniProt Q9L268 1-137, looked up)
chain: MNTTVSCELHLRLVVSSESSLPVPAGLRYDTADPYAVHATFHTGAEETVEWVFARDLLAEGLHRPTGTGDVRVWPSRSHGQGVVCIALSSPEGEALLEAPARALESFLKRTDAAVPPGTEHRHFDLDQELSHILAES
notes: SsgB, SCO1541, FtsZ-recruiting cell division protein of Streptomyces coelicolor; also called SCO1541; source: S. coelicolor M145, expressed in living aerial hyphae
Turning to B1, the “donor fluorescence intensity after acceptor photobleaching, relative to before (FRET)” value with FtsZ–mCherry was found to be 1.08; in the experiment with SepG–mCherry, 1.05.

The values are drawn from publication PMC4852450, “SepG coordinates sporulation-specific cell division and nucleoid organization in Streptomyces coelicolor” (Open Biology, 2016).
